For this assay, the target named is T1, activated soluble HLA-A*0201 (PolyTest) (human).
T1 construct: also called sHLA
The assay can be described thus: fluorescence polarization competition against 2.2 nM standard FITC-labeled peptide P5(A*0201), 40.5 µg/ml sHLA A*0201VLDL (2507).
Description: After reaching equilibrium conditions, fluorescence polarization expressed in mP was measured. Values obtained at different peptide dilutions were graphed and inhibitory concentrations expressed as log [IC50]'s determined by fitting the data to a dose-response model.
For all preparations, 1×BGG/PBS was used as buffer. […] FP values given as milli-polarization (mP) are calculated by the equation:polarization (mP)=1000(S−GP)/(S+GP), where S and P are background-subtracted intensities of the fluorescence measured in the parallel (S) and perpendicular (P) directions, respectively, and G (grating) is the instrument and assay dependent correction factor.
Competition experiments were analyzed by plotting FPₘₐₓ (maximal polarization) values as a function of the logarithms of competitor concentrations. […] Observed inhibitory concentrations (IC₅₀) were determined by nonlinear curve fitting to a dose-response model with variable slope using the specific software Prism (Graph Pad Software Inc.; San Diego, Calif.).
GVLPALPQV (Synthetic peptide; also called GVL(47)) [GVL peptide, GVLPALPQV (hCGβ 47-55)]: the “logIC50(nM)” value is 2.97 log10 of nM.
With TMTRVLQGV (Synthetic peptide; also called TMT(40)) [TMT peptide, TMTRVLQGV (hCGβ 40-48)], the “logIC50(nM)” value was 3.27 log10 of nM.
Take VLQGVLPAL (Synthetic peptide; also called VLQ(44)) [VLQ peptide, VLQGVLPAL (hCGβ 44-52)]: the “logIC50(nM)” value is 2.96 log10 of nM.

The values above are taken from patent US20090233318A1 (RECEPTOR LOGIC, published 2009).
